# Results as given in US6906179B2, “Antibody to SNIP1” (The General Hospital Corporation, priority 1999, dated 2005).
# Read-outs that look alike come from different tables or passages of the source.
# What was measured:
# [1] = test system: nigral dopamine neurons; conditions: cited from earlier work
# [2] = test system: rat sympathetic neurons; assay: OP-1 induced dendritic growth of rat sympathetic neurons; type: cell-based; conditions: sympathetic neurons
# Procedure: If Smad1 and DPC4 signal through proteasome mediated proteolysis, proteasome inhibitors should block the signaling of BMPs. We thus directly tested the effects of the proteasome inhibitors on the signaling pathways of BMPs that signal via Smad1 activation. […] The EC50 for the inhibitory activity of lactacystin was ˜100 nM and maximal effects were obtained with 4-6 hour pretreatments (not shown).
# To determine the time course of sensitivity to lactacystin with respect to the signaling pathway of OP-1, lactacystin was added to the media at various time points after the addition of OP-1 (FIG. 32, bottom panel B).
# [3] = test system: HsN3 and Smad1 localization; assay: Localization of HsN3 and Smad1 in transfected COS cells, confocal microscopy; type: cell-based
# From the text: Since the activation of BMP type I receptors, either by BMP ligands in the presence of the type II receptor, or by the presence of a point mutation (Q233D), can induce the translocation of Smad1 from the cytoplasm to the nucleus (Hoodless et al., 1996, Wang et al., unpublished data), we examined whether the intracellular localization of the Smad1 interactor HsN3 is also regulated by the constitutively activated BMP type I receptor ALK3Q233D. The localization of endogenous HsN3 in COS cells in the presence or absence of activated Smad1 was studied by immunocytochemistry and confocal microscopy (FIG. 28). In untransfected COS cells, weak signals from endogenous HsN3 were detected in both the cytoplasm and the nucleus, with a monoclonal anti-HsN3 antibody and a FITC-conjugated anti-mouse secondary antibody (FIG. 28A). […]
# To directly study how BMPs regulate the localization of HsN3, COS cells were transfected with the wild type BMP type I receptor ALK3 the BMP type II receptor and Smad1. […] In cells not treated with BMP7, the endogenous HsN3 produced a weak signal in both the cytoplasm and the nucleus that was detected with a FITC conjugated secondary antibody (FIG. 28D1), while the expressed Smad1 also produced a signal located throughout the transfected cells that was detected by Rodamine conjugated secondary antibody (FIG. 28D2). […]
# [4] = test system: SNIP-1 protein level; assay: ALK3Q233D-induced degradation of SNIP-1 in transfected COS cells, Western blot; type: cell-based; conditions: COS cells transfected with Smad1, DPC4, antizyme and BMP type II and type I (ALK3) receptors, treated with BMP7 (not shown)
# From the text: The novel Smad1 interactor is a nuclear proteip (termed as Smad1 Nuclear Interactor Protein 1, SNIP-1, SEQ ID No. 3), with a carboxyterminal domain that is highly homologous to the aminoterminus of the nuclear inhibitor of protein phosphatase 1 (NIPP-1) (Wang & Lechleider, unpublished) (FIG. 31A & C). NIPP-1 (VanEynde et al., 1995) is known to be rapidly processed into smaller heat-stable intermediates, a process that may be mediated by proteasome (see Discussion in Jagiello et al., 1995). SNIP-1 is a strong interactor of Smad1, that also binds to both antizyme and HsN3 in the yeast two-hybrid assays (FIG. 311B).
# Forty-eight hours after transfection, COS cells were lysed in an equal volume of lysis buffer (300 ul/plate), and the total protein concentration of each sample was measured. No major difference in protein concentration was detected among the lysates. The protein level of SNIP-1 in 100 ug of total protein lysate was determined by Western blot using anti-T7 monoclonal antibody. […] Such a decrease is dependent upon the coexpression of Smad1, DPC4 and antizyme, since replacing each of these three proteins with an unrelated protein (β galactosidase) abolishes such a decrease in ALK3Q233D transfected cells (FIG. 31D, top panel, lanes 9-14). […]
molecule,measurement,setting,value
"GDNF: glial cell line-derived neurotrophic factor, member of the TGF-β superfamily (protein, UniProt P39905 78-211, looked up) Glial cell line-derived …: SPDKQMAVLPRRERNRQAAAANPENSRGKGRRGQRGKNRGCVLTAIHLNVTDLGLGYETKEELIFRYCSGSCDAAETTYDKILKNLSRNRRLVSDKVGQACCRPIAFDDDLSFLDDNLVYHILRKHSAKRCGCI",nigral cell death and atrophy,[1]; intracerebral administration for 4 weeks following lesioning,completely prevented nigral cell death and atrophy
same,nigral cell death and atrophy,[1]; single 10 μg injection at 1 week post-lesion,partial protective effect
"TGF-β3: TGF-β isoform (protein, UniProt P10600 301-412, looked up) Transforming growth factor …: ALDTNYCFRNLEENCCVRPLYIDFRQDLGWKWVHEPKGYYANFCSGPCPYLRSADTTHSTVLGLYNTLNPEASASPCCVPQDLEPLTILYYVGRTPKVEQLSNMVVKSCKCS",nigral cell death or atrophy,[1]; similar dosing strategies,no effect
"BMP7: OP-1 (BMP7), bone morphogenetic protein, TGF-β family ligand (protein, UniProt P18075 293-431, looked up) Bone morphogenetic protein 7: STGSKQRSQNRSKTPKNQEALRMANVAENSSSDQRQACKKHELYVSFRDLGWQDWIIAPEGYAAYYCEGECAFPLNSYMNATNHAIVQTLVHFINPETVPKPCCAPTQLNAISVLYFDDSSNVILKKYRNMVVRACGCH",Smad1 localization upon OP-1 treatment,[2],rapid nuclear translocation of Smad1
same,HsN3 signal,[3]; 30 mins after BMP7 treatment (20 ng/ml),only a nuclear HsN3 signal of increased intensity was detected
same,endogenous HsN3 and overexpressed Smad1 localization,[3]; 60 mins after BMP7 treatment (20 ng/ml),accumulated in the nucleus
same,degradation of SNIP-1,[4],degradation of SNIP-1 has also been observed
